We go through one molecule from publication PMC11358013, “FANCD2–FANCI surveys DNA and recognizes double- to single-stranded junctions” (Nature, 2024).

The target of test [1] is T1, ybbR-tagged full-length Gallus gallus FANCD2 labelled with Cy3 (Gallus gallus, UniProt Q68Y81 1-1439, modified Cy3 (LD555-CoA) conjugated to the carboxyl-terminal ybbR tag).
T1 construct: FANCD2, Gallus gallus, codon-optimized full-length construct; also called FANCD2-Cy3; FANCD2-ybbR; source: Sf9, purified (Strep-Tactin, heparin, Superdex 200), labelled with SFP synthase and gel filtered
Kind of test: single-molecule two-colour confocal imaging on optically trapped DNA; 5 nM labelled D2–I loaded on λ DNA held between beads, imaged in the protein-free channel; 20 mM HEPES pH 7.5, 75 mM NaCl, 0.5 mg/ml BSA, 1 mM TCEP; 22 °C. Conditions: both partners purified.

The target in test [2] is T2, Cy3 labelled monoubiquitinated Gallus gallus FANCD2_ybbR (Gallus gallus | , UniProt Q68Y81 1-1439; P0CG48 1-76, monoubiquitinated with His-tagged ubiquitin; Cy3 (LD555-CoA) conjugated to the ybbR tag | joined to a lysine of FANCD2).
T2 construct: FANCD2, Gallus gallus, full-length ybbR-tagged construct as in m3; ubiquitin, His-tagged, bought from Enzo Life Sciences; also called ubFANCD2; ubFANCD2_ybbR; copies: 1 + 1
Kind of test: single-molecule two-colour confocal imaging on optically trapped DNA; ubD2–I formed by incubating purified ubFANCD2 and FANCI with relaxed, optically trapped λ DNA (less than 1 pN), then moved to the protein-free channel; kymographs at 15 pN. Conditions: both partners purified.

B1: ybbR-tagged full-length Gallus gallus FANCI labelled with Cy5 (natural protein, UniProt B0I564 1-1338, looked up)
chain: MAQRILQLAAEGSPERLQEALQGLTEGELGDMVTRQALRGRETAALLKGIFKGSPCSQQSGVLRRLQVYKHCVSLVESGDLHVGKVSEIIGLLMLEARQLPGHALAELATLFVEVIKRGSLSNGKSLELFSTVLTALSNSKESLAYGKGELNGEEFKKQLINTLCSSKWDPQCVIHLANMFRDIPLSGEELQFVVEKVLRMFSKLDLQEIPPLVYQLLLLSAKGSKKTVLEGIISFFNQLDKRQKEEQRVPQSADLEVATVPLDQLRHVEGTVILHIVSAINLDQDIGEELIKHLKTEQQKDPGKALCPFSVSLLLSTAVKHRLQEQIFDFLKTSITRSCKDLQILQASKFLQDLCPQQYDVTAVILEVVKNSAFGWDHVTQGLVDLGFSLMESYEPKKSFGGKAAETNLGLSKMPAQQACKLGASILLETFKVHEPIRSDILEQVLNRVLTKAASPVSHFIDLLSNIVVSAPLVLQNSSSRVTETFDNLSFLPIDTVQGLLRAVQPLLKVSMSVRDSLILVLQKAIFSRQLDARKAAVAGFLLLLRNFKILGSLTSSQCSQAIGATQVQADVHACYNSAANEAFCLEILGSLRRCLSQQADVRLMLYEGFYDVLRRNSQLASSIMETLLSQIKQYYLPQQDLLPPLKLEGCIMAQGDQIFLQEPLAHLLCCIQHCLAWYKSTVHLCKGAEDEEEEEDVGFEQNFEEMLESVTRRMIKSELEDFELDKSADFSPSSGVGVKNNIYAIQVMGICEVLIEYNFKIGNFSKNKFEDVLGLFTCYNKLSEILKEKAGKNKSTLGNRIARSFLSMGFVSTLLTALFRDNAQSHEESLAVLRSSTEFMRYAVSVALQKVQQLEEMGQTDGPDGQNPEKMFQNLCKITRVLLWRYTSIPTAVEESGKKKGKSISLLCLEGLLRIFNTMQQLYAARIPQFLQALDITDGDAEEADINVTEKAAFQIRQFQRSLVNQLSSAEDDFNSKETQLLITILSTLSKLLDPGSQQFLQFLTWTVKICKENALEDLSCCKGLLTLLFSLHVLYKSPVSLLRELAQDIHACLGDIDQDVEIESRSHFAIVNVKTAAPTVCLLVLGQADKVLEEVDWLIKRLTILGSDTSEDSTQASNQTQALEKGVILQLGTLLTVFHELVQTALPAGSCVDSLLRSLSKTYAILTSLIKHYIQACRSTSNTVPGRLEKLVKLSGSHLTPQCYSFITYVQNIHSESLSFAEEKKKKKKEDETAVVSTVMAKVLRDTKPIPNLIFAIEQYEKFLIHLSKKSKVNLMQYMKLSTSRDFRINASMLDSVLQEQNTEDAENEPDNNQSGTAEQPDENQEPQKKRRRKK
modifications: modified Cy5 (LD655-CoA) conjugated to the carboxyl-terminal ybbR tag
notes: FANCI, Gallus gallus, full-length; C-terminal extension with a 3C protease site and 6xHis-tag before the ybbR tag; also called FANCI-Cy5; FANCI-ybbR; source: Sf9, purified (HisTrap, heparin, Superdex 200), labelled with SFP synthase and gel filtered
For the molecule B1, the binding result in test [1] and in test [2] was “binds” throughout.
